Here are results for 84 variants from the RNAGym collection of RNA variant scans (doi:10.1073/pnas.2313332121).

B1: TPR 5TU (parent)
chain: GGAUCUUCUCGAUCUAACAAAAAAGACAAAUCUGCCACAAAGCUUGAGAGCAUCUUCGGAUGCAGAGGCGGCAGCCUUCGGUGGCGCGAUAGCGCCAACGUUCUCAACUAUGACACGCAAAACGCGUGCUCCGUUGAAUGGAGUUUAUCAUG

Variants at the floor of the assay were thinned out.

In the data set the parent is B1. Description: polymerase ribozyme fitness, log enrichment relative to wild type (log ratio); higher = more active; in vitro selection for triplet polymerase activity. In a few lines:
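Both subunits of a heterodimeric triplet polymerase ribozyme were given their own mutant library, built by PCR and transcribed. Each library was annealed with a biotinylated primer, the partner subunit and triplets, incubated frozen at −7 °C, and its extended constructs gel-excised, captured on streptavidin beads and amplified by RT-PCR, all in one round done in triplicate. Fitness is the logarithm of genotype enrichment relative to wild-type enrichment, with replicates averaged by inverse-variance weighting. That logarithm is base 2, and Illumina-sequenced genotypes needed ≥10 input reads and ≥1 read per output.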
U6C A21U U55A G58A G86A: the “polymerase ribozyme fitness (log ratio)” value is -3.18. Then U31C U55A G136U A150G, with -1.81; and A12U A28U U102A U139G U148G, with -4.1; and A23U A26U A41U G50A G65C A91C C103G G128U, with no more than -4.2. Turning to G50C C95G U101G A115U C118G A122C G126U, the “polymerase ribozyme fitness (log ratio)” value is no more than -4.2.

On to U4C C14A C93G, for which the “polymerase ribozyme fitness (log ratio)” value was no more than -4.2. Then C93A C96G A97C U148A, with no more than -4.2; and A24U C35A C87A A91C A150G, with no more than -4.2. Then A17G A39C A40C A73G G94C U134G, with no more than -4.2; and C38U U55A A60G C75G C76G A115U A122U C125G, with no more than -4.2. Then G58A A73C, with -1.62; and C87U G143U, with -2.69. As for U53A C69U A89G G94U C96U A115U U148G U151G, the “polymerase ribozyme fitness (log ratio)” value was no more than -4.2. For the variant G94U U101G A120U A142U, the “polymerase ribozyme fitness (log ratio)” value was -2.08.

With U4A C5G C69U C79U C85U G94C G117A G128U, the “polymerase ribozyme fitness (log ratio)” value was no more than -4.2. Then A24U A60G C85U A97C C129U, with -0.602; and A30U A37U U53A C87U, with no more than -4.2; and G81C G126C, with 0.723. Then A49G C96G, with -1.61; and A37U A40C U55A G58A G59A G84C G126A, with -4.07; and C54G U61C G84U C87U G88A A119U, with no more than -4.2. Consider A24U U55A C87U G92U, for which the “polymerase ribozyme fitness (log ratio)” value is -3.1. Then G58U C75A U90A, with no more than -4.2; and A40C U55G G58A U130A U135C, with no more than -4.2. Then G58C U111G C116A A137C, with no more than -4.2. Then A20U G46C G62U C75G G92A G140C, with no more than -4.2; and C27U A39C G50U C123A, with no more than -4.2. In the case of A16G U78A C93G, the “polymerase ribozyme fitness (log ratio)” value was no more than -4.2. To A30U U55A G59A G70A C96G A97G belongs no more than -4.2; to A17C A19C A73G C96U C123U C125G, -3.23. On to A20U A23C C35G G84A C125U, for which the “polymerase ribozyme fitness (log ratio)” value is no more than -4.2. To C85U G100U A121C G124A C125G G136A A142G G152U belongs no more than -4.2; to G84A C123G, -0.679; to C38U G46A C95A, -0.705. Then A52G G70C U78G C93G G141C, with no more than -4.2; and A23G G25C G50C C57A G58U C85U U144C, with no more than -4.2. As to U55A U61G G86U, the “polymerase ribozyme fitness (log ratio)” value is no more than -4.2.

As to A39C A40C G70C G88C U109C, the “polymerase ribozyme fitness (log ratio)” value was no more than -4.2. To A19G C38U G50A G86A C105A C116A A121U G141C belongs no more than -4.2; to A91C A113G A138U, no more than -4.2.

In the case of U13G G58A C95U C96G, the “polymerase ribozyme fitness (log ratio)” value is -4.19. A26G U77A C87U A89C: the “polymerase ribozyme fitness (log ratio)” value was no more than -4.2. A23G G25C A40C G58A U61A G80C G88C: the “polymerase ribozyme fitness (log ratio)” value is no more than -4.2. In the case of A52U C69U G83C C116G, the “polymerase ribozyme fitness (log ratio)” value is -4.13. To U4C C85U U101G A147C belongs -0.704; to A22G C57A G59C A60C, -2.03. On to A30G C76U C96U, for which the “polymerase ribozyme fitness (log ratio)” value was no more than -4.2.

Take A28U A40U G48A A119U U127C U146G: the “polymerase ribozyme fitness (log ratio)” value was no more than -4.2. Then U9C C38U A52U C75G G92U G94A G136U U144G, with no more than -4.2; and U82A U102G, with -2.54. To U4A C76A G86C A122C belongs -3.26; to G84A G124A, -0.287. To U55G C87A C118U U130G belongs no more than -4.2. As to A40U C51U G83C, the “polymerase ribozyme fitness (log ratio)” value is -0.981. Then G50C U104G, with no more than -4.2; and A17G A24U A26U G58A, with -4.02. Then A26C U144C, with -2.23; and C10A U31C G46A C69G G80A U82A G86A C99U G100U G141A, with no more than -4.2.

For the variant G48A G92U C123A, the “polymerase ribozyme fitness (log ratio)” value was -0.538. To U55G C57G C95U C96A C118G belongs -2.53; to G68C A122C, no more than -4.2. To C63G G92U U102C A120G belongs -1.8; to C8A A12G C85U C103G G124U C129A, no more than -4.2; to C54U C75G U78C C79A G80U, no more than -4.2.

On to C8G U15G A21G G83U A91G C105U U144C U148A, for which the “polymerase ribozyme fitness (log ratio)” value was no more than -4.2. Then U9G, with -2.82; and U33A A39G U90A U130A, with no more than -4.2; and A16U G92U, with -2.29.

For G58C G86U C105A, the “polymerase ribozyme fitness (log ratio)” value is -2.89. To A60G G70C U77A U135G belongs no more than -4.2; to A24U G74C, -4.19; to A21G G48A C54U G92A, no more than -4.2.

With G80A A89G G117U, the “polymerase ribozyme fitness (log ratio)” value is -1.48. To A19U U56A A60G U104G G152A belongs -2.82; to C63G G65A G71A C87A C118U U145C, no more than -4.2; to C14A A19C C93U C125A, -3.52. To A52U C96U U101G U145G belongs -4.1; to G50C U77G C93G, no more than -4.2; to A21G A30U A60C U77G C85A G94U G117U A150G, no more than -4.2. Consider C5U U13C C85U U101G C105A U109G A110G, for which the “polymerase ribozyme fitness (log ratio)” value was no more than -4.2. Then G46C C96A C123G, with -1.48. Then A22U U144A, with 0.777. To G84A G100C belongs no more than -4.2; to G46U C72A U90G A97G G100A U104A A107G G124C, no more than -4.2.
